In the supplement of paper PMC9112550, “Optimization of the antimicrobial peptide Bac7 by deep mutational scanning” (BMC Biology, 2022):

Test system: Escherichia coli TOP10
Test: shrunken log2 fold change of peptide-encoding DNA abundance (4.5 h post-induction vs induction); higher = less antimicrobial activity (less host growth inhibition)
Settings: time post-induction: 4.5 h; library: site-saturation at positions 5, 18, 19, 20
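Also: peptides expressed intracellularly from a pBAD plasmid library in pooled LB shake-flask culture, induced with 0.3% L-arabinose, DNA abundance read by NGS, three biological replicates, DESeq2 with apeglm shrinkage.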

Sequence | shrunken log2 fold change
RRIRYRPPRLPRPRPRPVQQPRP | -0.00101
RRIRVRPPRLPRPRPRPIMAPRP | -0.111
RRIRGRPPRLPRPRPRPQNVPRP | 0.266
RRIRGRPPRLPRPRPRPARLPRP | 0.678
RRIRNRPPRLPRPRPRPAYAPRP | -0.236
RRIRQRPPRLPRPRPRPEPAPRP | 0.789
RRIRERPPRLPRPRPRPPSMPRP | -0.242
RRIRTRPPRLPRPRPRPIQWPRP | 0.015
RRIRNRPPRLPRPRPRPQWDPRP | -0.0901
RRIRYRPPRLPRPRPRPVWTPRP | 0.0188
RRIRVRPPRLPRPRPRPTAEPRP | 0.0994
RRIRPRPPRLPRPRPRPQPNPRP | 0.185
RRIRMRPPRLPRPRPRPLHNPRP | -0.127
RRIRRRPPRLPRPRPRPKCYPRP | 0.00463
RRIRMRPPRLPRPRPRPVGWPRP | 1.37
RRIRARPPRLPRPRPRPEENPRP | 1.26
RRIRVRPPRLPRPRPRPIPMPRP | -0.094
RRIRWRPPRLPRPRPRPQENPRP | -0.0785
RRIRNRPPRLPRPRPRPPTEPRP | 0.389
RRIRWRPPRLPRPRPRPYQMPRP | -0.0321
RRIRCRPPRLPRPRPRPNWDPRP | -0.185
RRIRPRPPRLPRPRPRPGILPRP | -0.557
RRIRWRPPRLPRPRPRPSPRPRP | 0.299
RRIRLRPPRLPRPRPRPNTGPRP | -0.359
RRIRQRPPRLPRPRPRPDAKPRP | 0.199

Sequence | shrunken log2 fold change
RRIRLRPPRLPRPRPRPMNPPRP | -0.0817
RRIRVRPPRLPRPRPRPKVQPRP | 3.74
RRIRPRPPRLPRPRPRPCPYPRP | -1.08
RRIRSRPPRLPRPRPRPFFCPRP | -0.11
RRIRTRPPRLPRPRPRPAFSPRP | 0.193
RRIRLRPPRLPRPRPRPKTIPRP | -0.109
RRIRRRPPRLPRPRPRPQCYPRP | -0.136
RRIRARPPRLPRPRPRPTTRPRP | 0.61
RRIRNRPPRLPRPRPRPGAYPRP | -0.00116
RRIRNRPPRLPRPRPRPFQYPRP | -0.0242
RRIRQRPPRLPRPRPRPLRIPRP | 0.116
RRIRSRPPRLPRPRPRPKDCPRP | 0.456
RRIRERPPRLPRPRPRPCKAPRP | -0.0137
RRIRGRPPRLPRPRPRPVSWPRP | 1.06
RRIRDRPPRLPRPRPRPDYHPRP | -0.0139
RRIRLRPPRLPRPRPRPHDIPRP | -0.618
RRIRCRPPRLPRPRPRPTVFPRP | 0.197
RRIRHRPPRLPRPRPRPNEIPRP | -0.21
RRIRMRPPRLPRPRPRPIVWPRP | -0.0994
RRIRQRPPRLPRPRPRPSNYPRP | -0.0943
RRIRGRPPRLPRPRPRPIEPPRP | 0.491
RRIRQRPPRLPRPRPRPITRPRP | 0.0297
RRIRMRPPRLPRPRPRPIFQPRP | -0.115
RRIRNRPPRLPRPRPRPMIVPRP | -0.017
RRIRSRPPRLPRPRPRPLIMPRP | -0.47

Sequence | shrunken log2 fold change
RRIRDRPPRLPRPRPRPWKDPRP | -0.0129
RRIRRRPPRLPRPRPRPMRKPRP | 0.58
RRIRSRPPRLPRPRPRPHKWPRP | -0.296
RRIRWRPPRLPRPRPRPEETPRP | 0.0603
RRIRSRPPRLPRPRPRPYSVPRP | -0.582
RRIRNRPPRLPRPRPRPKKYPRP | -0.69
RRIRWRPPRLPRPRPRPYYCPRP | -0.00583
RRIRCRPPRLPRPRPRPHPMPRP | -0.243
RRIRQRPPRLPRPRPRPDNAPRP | -0.246
RRIRARPPRLPRPRPRPHNKPRP | -0.398
RRIRYRPPRLPRPRPRPVHPPRP | -0.186
RRIRMRPPRLPRPRPRPNFDPRP | 0.622
RRIRCRPPRLPRPRPRPQGNPRP | -0.695
RRIRYRPPRLPRPRPRPALYPRP | -0.284
RRIRGRPPRLPRPRPRPQLYPRP | 0.415
RRIRARPPRLPRPRPRPLQWPRP | 0.539
RRIRRRPPRLPRPRPRPHTEPRP | -0.0233
RRIRHRPPRLPRPRPRPSCWPRP | -0.0721
RRIRRRPPRLPRPRPRPSAMPRP | 0.378
RRIRARPPRLPRPRPRPHGFPRP | -0.00228
RRIRERPPRLPRPRPRPMYIPRP | -0.289
RRIRQRPPRLPRPRPRPEQKPRP | 0.039
RRIRTRPPRLPRPRPRPPCAPRP | 0.308
RRIRDRPPRLPRPRPRPRTQPRP | 0.168
RRIRFRPPRLPRPRPRPYDWPRP | -0.147

Sequence | shrunken log2 fold change
RRIRIRPPRLPRPRPRPSEAPRP | -0.0351
RRIRNRPPRLPRPRPRPSPIPRP | -0.561
RRIRFRPPRLPRPRPRPNMPPRP | -0.443
RRIRWRPPRLPRPRPRPYWVPRP | -0.294
RRIRHRPPRLPRPRPRPITCPRP | -0.0107
RRIRKRPPRLPRPRPRPAHWPRP | 0.719
RRIRARPPRLPRPRPRPAKAPRP | 0.332
RRIRERPPRLPRPRPRPSGDPRP | -0.253
RRIRFRPPRLPRPRPRPNWDPRP | -0.269
RRIRNRPPRLPRPRPRPPQRPRP | 0.457
RRIRARPPRLPRPRPRPDCMPRP | 0.386
RRIRLRPPRLPRPRPRPRGYPRP | 0.262
RRIRGRPPRLPRPRPRPIFYPRP | 0.0354
RRIRSRPPRLPRPRPRPVWYPRP | 0.154
RRIRERPPRLPRPRPRPRLVPRP | -0.0143
RRIRARPPRLPRPRPRPEPHPRP | 0.374
RRIRGRPPRLPRPRPRPDSCPRP | 0.426
RRIRTRPPRLPRPRPRPAIAPRP | 0.101
RRIRSRPPRLPRPRPRPSKIPRP | -0.378
RRIRLRPPRLPRPRPRPPNCPRP | -0.0466
RRIRRRPPRLPRPRPRPHDLPRP | 0.22
RRIRERPPRLPRPRPRPEDKPRP | -0.034
RRIRVRPPRLPRPRPRPKLMPRP | -0.203
RRIRIRPPRLPRPRPRPNRFPRP | -0.174
RRIRERPPRLPRPRPRPWGSPRP | -0.0459

Sequence | shrunken log2 fold change
RRIRNRPPRLPRPRPRPAHQPRP | -0.108
RRIRRRPPRLPRPRPRPEAKPRP | 4.76
RRIRDRPPRLPRPRPRPRSGPRP | 0.276
RRIRIRPPRLPRPRPRPKSMPRP | -0.208
RRIRPRPPRLPRPRPRPNFNPRP | -0.273
RRIRHRPPRLPRPRPRPETMPRP | 0.054
RRIRPRPPRLPRPRPRPSDCPRP | -0.0743
RRIRTRPPRLPRPRPRPNWCPRP | -0.0796
RRIRSRPPRLPRPRPRPHYIPRP | -0.556
RRIRIRPPRLPRPRPRPIYKPRP | -0.517
RRIRPRPPRLPRPRPRPCCMPRP | -0.144
RRIRTRPPRLPRPRPRPYHFPRP | -0.28
RRIRARPPRLPRPRPRPPVYPRP | 0.0965
RRIRRRPPRLPRPRPRPHQKPRP | 0.474
RRIRMRPPRLPRPRPRPITTPRP | -0.0401
RRIRPRPPRLPRPRPRPVILPRP | -0.26
RRIRLRPPRLPRPRPRPGQIPRP | 0.207
RRIRPRPPRLPRPRPRPNQRPRP | 0.0736
RRIRWRPPRLPRPRPRPRPMPRP | 0.427
RRIRQRPPRLPRPRPRPVYIPRP | -0.214
RRIRDRPPRLPRPRPRPMHRPRP | -0.0439
RRIRCRPPRLPRPRPRPCYVPRP | -1.08
RRIRLRPPRLPRPRPRPIACPRP | 0.0367
RRIRCRPPRLPRPRPRPGADPRP | 0.484
RRIRCRPPRLPRPRPRPAHMPRP | -0.249
